Measurements reported in patent US20250376511A1 (Sanofi, published 2025).
Where two headings read alike, the source gives them in different places.

T1: Human active C1s (Complement Technology) (human, UniProt P09871 16-688)
T1 sequence: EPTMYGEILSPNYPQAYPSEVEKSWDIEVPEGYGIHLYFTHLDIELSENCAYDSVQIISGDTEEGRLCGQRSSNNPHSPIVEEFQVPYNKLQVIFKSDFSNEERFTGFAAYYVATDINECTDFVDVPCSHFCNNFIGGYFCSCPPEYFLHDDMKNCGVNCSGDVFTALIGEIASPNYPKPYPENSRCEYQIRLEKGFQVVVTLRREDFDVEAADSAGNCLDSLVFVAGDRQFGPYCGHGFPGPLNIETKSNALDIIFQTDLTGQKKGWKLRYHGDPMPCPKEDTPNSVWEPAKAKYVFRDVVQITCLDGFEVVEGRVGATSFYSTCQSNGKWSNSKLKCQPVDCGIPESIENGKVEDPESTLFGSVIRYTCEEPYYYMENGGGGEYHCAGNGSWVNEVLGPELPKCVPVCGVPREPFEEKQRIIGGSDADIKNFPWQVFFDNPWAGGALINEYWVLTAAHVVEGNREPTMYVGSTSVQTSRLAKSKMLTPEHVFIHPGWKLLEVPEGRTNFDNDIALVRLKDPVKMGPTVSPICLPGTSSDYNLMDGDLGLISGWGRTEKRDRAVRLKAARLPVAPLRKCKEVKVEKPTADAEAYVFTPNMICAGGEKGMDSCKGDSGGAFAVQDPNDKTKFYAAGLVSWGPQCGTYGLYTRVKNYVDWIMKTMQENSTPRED


Experiments:
[1] = target: T1, Human active C1s (Complement Technology); assay: cell-based or functional assay
[2] = target: T1, Human active C1s (Complement Technology); assay: SPRi Carterra LSA, antibody captured on protein A/G, human active C1s as analyte, 25 C, 1:1 fit
Description: C1s binding using surface plasmon resonance (SPRi): Analysis of active C1s binding was performed on a Carterra LSA SPRi instrument at 25° C. Protein A/G (Sigma) diluted in 25 mM MES pH 6.0, 0.05% Tween-20 running buffer was covalently immobilized to an HC200M sensor chip using amine coupling. Antibodies were diluted to 0.2 μg/mL in HBS-EP+ buffer and printed in duplicate to the protein A/G surface in the capture 96-array format for 5 min followed by a 1 min baseline in buffer. Human active C1s (Complement Technology) was serially diluted […] from 1 μM to 0.781 nM in running buffer and injected over the captured antibodies for 5 min with a 5 min dissociation time. The surface was regenerated with 10 mM glycine pH 1.5 with two 30 sec injections. Sensorgrams were processed with the Carterra® K.I.T. Inspection Tool and fit to a 1:1 binding model to obtain kinetic constants.
Three variants were selected as viable engineered alternatives to the wild-type anti-aC1s sequence: D32E, D32S, and D32Y. The three variants were expressed as bivalent monospecific anti-aC1s antibodies with human IgG1 and their affinity for aC1s tested by surface plasmon resonance (Table 5).

[3] = target: T1, Human active C1s (Complement Technology); assay: cell-based or functional assay; remark: listed apart in the source
[4] = target: T1, Human active C1s (Complement Technology); assay: cell-based or functional assay; remark: listed apart in the source
[5] = target: T2, His-tagged recombinant human TfR (produced in-house) (human, UniProt P02786 89-760); assay: SPR Biacore T200, His-tagged human TfR captured on anti-His, antibody as analyte, 25 C, 1:1 fit
T2 construct: also called hTfR; transferrin receptor 1
Description: (§1) TfR and C1s binding using surface plasmon resonance (SPR): Analysis of antibody binding to TfR was performed on a Biacore™ T200 instrument using anti-His capture at 25° C. Anti-His (Qiagen) was buffer exchanged into PBS pH 7.2, diluted to 25 μg/mL in 10 mM sodium acetate pH 4.0 and directly immobilized to a series S CM5 chip to a surface density of ˜10,000 RU using the amine coupling kit provided by Cytiva. His-tagged recombinant human TfR (produced in-house) was diluted in HBS-EP+ pH 7.4 running buffer (10 mM HEPES pH 7.4, 150 mM NaCl, 3 mM EDTA, 0.05% surfactant P20) and injected for 5 sec at 20 μL/min flowrate to obtain capture level of 20 RU. Antibodies were serially diluted 2-fold from 90 to 5.625 nM in running buffer and injected over the captured TfR for 3 min followed by 9 min dissociation in buffer at 30 μL/min. Each cycle was regenerated with 10 mM glycine pH 1.5. To measure C1s binding, anti-human Fc (Jackson) was directly immobilized to a CM5 chip using amine chemistry. Antibodies were diluted to 2.5 μg/mL in HBS-EP+ pH 7.4 and captured to the chip for 15 sec at 20 μL/min flowrate. Human active C1s (Complement Technology) was serially diluted 2-fold from 20 to 0.625 nM in running buffer and injected over the captured antibodies for 180 sec at 50 μL/min followed by 9 min dissociation in buffer. The bound complex was removed from the chip each cycle with 40 mM HCl and 0.85% phosphoric acid. Sensorgrams were processed using the Biacore™ Insight software and fit to a 1:1 binding model to obtain kinetic constants.
(§2) The six bispecific anti-aC1s/anti-TfR antibodies were first tested for their affinity for both TfR and aC1s via surface plasmon resonance (SPR) (Table 2).

[6] = target: T1, Human active C1s (Complement Technology); assay: cell-based or functional assay; remark: listed apart in the source
[7] = target: T1, Human active C1s (Complement Technology); assay: SPR Biacore T200, antibody captured on anti-human Fc, human active C1s as analyte, 1:1 fit
Description: as §1, §2

T2 sequence (P02786 89-760 limits assumed): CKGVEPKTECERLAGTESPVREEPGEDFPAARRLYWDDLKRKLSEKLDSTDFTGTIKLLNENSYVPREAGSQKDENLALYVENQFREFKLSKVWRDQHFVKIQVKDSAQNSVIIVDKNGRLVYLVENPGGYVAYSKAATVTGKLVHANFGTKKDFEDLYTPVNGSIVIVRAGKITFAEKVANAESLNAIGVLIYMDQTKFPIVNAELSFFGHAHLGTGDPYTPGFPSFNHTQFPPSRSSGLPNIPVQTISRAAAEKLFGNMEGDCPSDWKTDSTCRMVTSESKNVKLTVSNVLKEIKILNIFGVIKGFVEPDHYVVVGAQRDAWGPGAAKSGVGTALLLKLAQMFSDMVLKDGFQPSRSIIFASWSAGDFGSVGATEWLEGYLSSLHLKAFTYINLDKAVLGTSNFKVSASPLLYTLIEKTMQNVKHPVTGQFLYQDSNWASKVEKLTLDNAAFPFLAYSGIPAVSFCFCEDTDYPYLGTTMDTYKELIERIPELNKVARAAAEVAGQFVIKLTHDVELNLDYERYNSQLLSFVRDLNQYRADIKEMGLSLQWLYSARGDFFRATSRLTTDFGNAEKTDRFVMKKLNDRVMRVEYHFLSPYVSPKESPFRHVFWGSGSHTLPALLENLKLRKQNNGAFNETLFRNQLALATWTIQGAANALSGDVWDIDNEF

| Binder | IC50, Wieslab Complement Pathway Assay (batch 1) [1] [mg/L] | IC50, Wieslab Complement Pathway Assay (batch 2) [1] [mg/L] | Kd [2] [nM] | koff [2] [s⁻¹] | kon [2] [M⁻¹ s⁻¹] | IC50, Wieslab Complement Pathway Assay (classical pathway, 1% NHS) [3] [mg/L] | IC50, Wieslab Complement Pathway Assay (classical pathway, 1% NHS) [4] [mg/L] | Kd [5] [nM] | koff [5] [s⁻¹] | kon [5] [M⁻¹ s⁻¹] | IC50, C3d deposition on neurons in iPSC tricultures with serum [6] [mg/L] | Kd [7] [nM] | koff [7] [s⁻¹] | kon [7] [M⁻¹ s⁻¹] |
| --- | --- | --- | --- | --- | --- | --- | --- | --- | --- | --- | --- | --- | --- | --- |
| SAR445088 (antibody, V domains shown, sulfated tyrosine (Y36) on the light chain, Bivalent monospecific anti-aC1s antibody; also called BIVV020; the wild-type antibody) VH: QVQLVQSGAEVKKPGASVKLSCTASGFNIKDDYIHWVKQAPGQGLEWIGRIDPADGHTKYAPKFQVKVTITADTSTSTAYLELSSLRSEDTAVYYCARYGYGREVFDYWGQGTTVTVSS VL: DIVLTQSPDSLAVSLGERATISCKASQSVDYDGDSYMNWYQQKPGQPPKILIYDASNLESGIPARFSGSGSGTDFTLTISSLEPEDFAIYYCQQSNEDPWTFGGGTKVEIK | 0.45 | 0.63 | 2.5 | 0.0033 | 1.3e+06 | 0.77 | 1.07 |  |  |  |  |  |  |  |
| aC1s_088 IgG1-dK (antibody, V domains shown) VH: QVQLVQSGAEVKKPGASVKLSCTASGFNIKDDYIHWVKQAPGQGLEWIGRIDPADGHTKYAPKFQVKVTITADTSTSTAYLELSSLRSEDTAVYYCARYGYGREVFDYWGQGTTVTVSS VL: DIVLTQSPDSLAVSLGERATISCKASQSVDYDGDSYMNWYQQKPGQPPKILIYDASNLESGIPARFSGSGSGTDFTLTISSLEPEDFAIYYCQQSNEDPWTFGGGTKVEIK |  |  |  |  |  |  | 0.84 |  |  |  |  |  |  |  |
| aC1s_088 × 531v25 IgG1-NNAS/dK (bispecific antibody, V domains shown, IgG1-NNAS Fc, dK, with charge pairing mutations; The starred variable domains are used, as for m5) VH 1: QVQLVQSGAEVKKPGASVKLSCTASGFNIKDDYIHWVKEAPGQGLEWIGRIDPADGHTKYAPKFQVKVTITADTSTSTAYLELSSLRSEDTAVYYCARYGYGREVFDYWGQGTTVTVSS VL 1: DIVLTQSPDSLAVSLGERATISCKASQSVDYDGDSYMNWYQKKPGQPPKILIYDASNLESGIPARFSGSGSGTDFTLTISSLEPEDFAIYYCQQSNEDPWTFGGGTKVEIK VH 2: QVQLVQSGAEVKKPGASVKVSCKASGYTFTRYYLNWVRKAPGQGLEWIGMIDPSVSETHYAQKFQGRATLTVDKSTSTAYMELSSLRSEDTAVYYCSQIRLPYYYAMDSWGQGTTVTVSS VL 2: DIQMTQSPSSLSASVGDRVTITCRASQDISSFLNWYQEKPGKAPKLLIYYTSRLQSGVPSRFSGSGSGTDYTLTISSLQPEDFATYYCQQGNTLPRTFGGGTKVEIK |  |  |  |  |  | 2.02 |  | 24.6 | 0.0049 | 199000 | 29.7 | 0.68 | 0.00285 | 4.22e+06 |

Results, then the binder that gave them:

| IC50, Wieslab Complement Pathway Assay (batch 1) [1] [mg/L] | IC50, Wieslab Complement Pathway Assay (batch 2) [1] [mg/L] | Kd [2] [nM] | koff [2] [s⁻¹] | kon [2] [M⁻¹ s⁻¹] | IC50, Wieslab Complement Pathway Assay (classical pathway, 1% NHS) [3] [mg/L] | IC50, Wieslab Complement Pathway Assay (classical pathway, 1% NHS) [4] [mg/L] | Kd [5] [nM] | koff [5] [s⁻¹] | kon [5] [M⁻¹ s⁻¹] | IC50, C3d deposition on neurons in iPSC tricultures with serum [6] [mg/L] | Kd [7] [nM] | koff [7] [s⁻¹] | kon [7] [M⁻¹ s⁻¹] | Binder |
| --- | --- | --- | --- | --- | --- | --- | --- | --- | --- | --- | --- | --- | --- | --- |
|  |  | 2.5 | 0.0032 | 1.3e+06 |  | 1.36 |  |  |  |  |  |  |  | aC1s_D32E IgG1-dK (antibody, V domains shown, Y36 sulfation: Yes) VH: QVQLVQSGAEVKKPGASVKLSCTASGFNIKDDYIHWVKQAPGQGLEWIGRIDPADGHTKYAPKFQVKVTITADTSTSTAYLELSSLRSEDTAVYYCARYGYGREVFDYWGQGTTVTVSS VL: DIVLTQSPDSLAVSLGERATISCKASQSVDYEGDSYMNWYQQKPGQPPKILIYDASNLESGIPARFSGSGSGTDFTLTISSLEPEDFAIYYCQQSNEDPWTFGGGTKVEIK |
|  |  | 7.3 | 0.0065 | 890000 |  | 10.7 |  |  |  |  |  |  |  | aC1s_D32S IgG1-dK (antibody, V domains shown, Bivalent monospecific human IgG1) VH: QVQLVQSGAEVKKPGASVKLSCTASGFNIKDDYIHWVKQAPGQGLEWIGRIDPADGHTKYAPKFQVKVTITADTSTSTAYLELSSLRSEDTAVYYCARYGYGREVFDYWGQGTTVTVSS VL: DIVLTQSPDSLAVSLGERATISCKASQSVDYSGDSYMNWYQQKPGQPPKILIYDASNLESGIPARFSGSGSGTDFTLTISSLEPEDFAIYYCQQSNEDPWTFGGGTKVEIK |
|  |  |  |  |  | 1.78 |  | 20.3 | 0.00332 | 164000 | 12.8 | 0.69 | 0.00272 | 3.96e+06 | aC1s_088 × 531v25.v6 IgG1-NNAS/dK (bispecific antibody, V domains shown, IgG1-NNAS Fc, dK, with charge pairing mutations; The starred variable domains are used, as for m5) VH 1: QVQLVQSGAEVKKPGASVKLSCTASGFNIKDDYIHWVKEAPGQGLEWIGRIDPADGHTKYAPKFQVKVTITADTSTSTAYLELSSLRSEDTAVYYCARYGYGREVFDYWGQGTTVTVSS VL 1: DIVLTQSPDSLAVSLGERATISCKASQSVDYDGDSYMNWYQKKPGQPPKILIYDASNLESGIPARFSGSGSGTDFTLTISSLEPEDFAIYYCQQSNEDPWTFGGGTKVEIK VH 2: QVQLVQSGAEVKKPGASVKVSCKASGYTFTRYYLNWVRKAPGQGLEWIGMIDPSVSETHYAQKFQGRATLTVDKSTSTAYMELSSLRSEDTAVYYCSQIRLPYYYAMDSWGQGTTVTVSS VL 2: DIQMTQSPSSLSASVGDRVTITCRASQDIESFLNWYQEKPGKAPKLLIYYTSRLQSGVPSRFSGSGSGTDYTLTISSLQPEDFATYYCQQGNTLPRTFGGGTKVEIK |
